The source of these data is the DeepSol protein solubility set.

This data set can be described thus: soluble on expression in E. coli; label from the status in PepcDB or PDB records.
On to “MSKPEFIARQGRKPTGWLGHIVARVMARETRPENDRALSFLDLADGDSLIDIGCGHGETLFQADRIVRLSGSVGVDFSEVMLKRARARNRDAVWDTRMAFHCADTAALPFPDKRFGKALSVHTIYFWPNPAAHLAEAFRVLRRGGRFLFCYRSTADRRAVEEFPDTVYRFPSVQEVEEKLKLVGFLGPETTTEDIKGRLTHWSIAEKPLEHHHHHH”, for which the “soluble on expression in E. coli” value is “soluble”. Next, “MSKQDEVIVVGKFGASYGIRGWLKVVSFTDQPESIFDYKPWLIQVKGEWVEFSVESWKRHKGLVCKLKGLDVREEAQTYTNLEIAVKADALPELSEDEFYWRELFGMEVVTTKGYALGVVDDIFETGSNDVLVVKANLKDAFGKKERLIPFIDEQVIKLIDREAQRIEVDWDPGFLEHHHHHH”: “soluble”; “MSKRNTQQRRHNIIADLNAQGEVSVDSLAKQFDTSEVTIRKDLAALETSGLLLRRYGGAVALPSEITEAKVDQLSQQKLHIAKKAAMLIRDHNRIIIDSGQTTSALVSELANKKGLVVMTNALSIANEIHALENEPTLLMTGGTWDATSEAFQGQVAEQVLRSYDFDQLFIGADGIDIKRGTTTFNELIGLSRVMAEVAREVIVMVESAKITKKIPNLELNWQQIHTVITDDGLSEEMRIALTEQGVKLIIAKG”: “not soluble”; “MSKTITWTAALLGSMALAGCSGPKTLYQWEGYQAQVHEYFKGESKEAQAQALEADLEKIRAKNGAVPPGYHAQLGLLYSSIGKDDQMVREFETEKALFPESATYMDFLLNNARGGAR”: “not soluble”. For “MSKTRMEKLKTLKTIAETLNQGHDIKATLDEVLKELLSLTNLQSGWIFLIEEDGSYTLAADAYLPPALSRKEKVLMCEGECYCLTKFNNGGLRKAANIMNCKRIESAENLHCFDTEGITHHATVPLEDGDRRFGLLNVAAAGKTMFDEEELHLLESVAFQIGTAIQRMRLSE” the value was “soluble”; for “MSLAAGVLPQNEQPYSTLVNNSECVANMKGNLERPTPKYTKVGERLRHVIPGHMACSMACGGRACKYENPARWSEQEQAIKGVYSSWVTDNILAMARPSSELLEKYHIIDQFLSHGIKTIINLQRPGEHASCGNPLEQESGFTYLPEAFMEAGIYFYNFGWKDYGVASLTTILDMVKVMTFALQEGKVAIHCHAGLGRTGVLIACYLVFATRMTADQAIIFVRAKRPNSIQTRGQLLCVREFTQFLTPLRNIFSCCDPKAHAVTLPQYLIRQRHLLHGYEARLLKHVPKIIHLVCKLLLDLAEEGHHHHHH”, “not soluble”; for “MSLAANPWNWFGSSTKVSEQGVGELTASTPLQEQAIADALDGDYRLRSGMKTANGNVVRFFEVMKGDNVAMVINGDQGTISRIDVLDSDIPADTGVKIGTPFSDLYSKAFGNCQKADGDDNRAVECKAEGSQHISYQFSGEWRGPEGLMPSDDTLKNWKVSKIIWRREGHHHHHH”, “soluble”. Turning to “MSLAATGDAGWRIRLREAAVVAGPTVLLGEVADPVGEMPAAVWRDLAARPLWAAPADAGRPMIVNKVRLGEALRAALGATADSCLLPPSMALQRGGAVLREGDLRDIVVRTMTPQLASMGGEASFSDFRLPPFAFLEHPQQKVILEPLQPAPGRLSLRFAVLEMDGAVVRRFTGTAFLDVWLTVPCAAQPLNRGDRLEVEKVTWMRKNIAHLRAAPWDGRGGPWQLQRPVGAGQVVYQDDVAPNPAVTRGGIVTLVYESPALRLAVQGEALADGMPGETIQVRNLQSRKQVYATVRDGSTVVVREGHHHHHH”, the “soluble on expression in E. coli” value is listed as “soluble”. For “MSLAETLEKNAIDKSEYPQTAELENRCVNILADLWNAPKDMSYLGTSTVGSSEACMLGGLAMKFRWRNNAEKRGLDIQAKRPNLIISSGYQVCWEKFCVYWDVDMRVVPMDKNHLSLDVDKVFDLVDEYTIGVVGILGITYTGKFDDIQLLDEKVEAYNETNEHQLVIHIDGASGAMFTPFVNPELPWDFRLKNVVSINTSGHKYGLVYPGVGWILWKDKEYLPKELIFEVSYLGGSMPTMAINFSRSASQIIGQYYNFLRYGFEGYREIHEKTKKTAIYLAKTVEKSGYFEIINDGANLPIVCYKMKEGLDVEWTLYDLADQLLMKGWQVPAYPLPADLSDTIIQRFVCRADLGYNVAEEFAADFADAIHNLEHARVLYHDKERNDSYGFTHEGHHHHHH”, the “soluble on expression in E. coli” value is on record as “soluble”.

As to “MSLAEYVYTMSRVSKIVPPKRQILKDISLSFFPGAKIGVLGLNGAGKSTLLRIMAGIDKDIDGEARPQPGLKVGYLPQEPKLDESKTVREVVEEAVADVAYALKRLDEVYAAYAEPDADFDALAKEQGELEALIQAKNGHNLDNALERAADALRLPEWDAQVKYLSGGERRRVAICRLLLENPDMLLLDEPTNHLDAESVAWLERFLVDYAGTVVAITHDRYFLDNAAGWILELDRGEGIPWQGNYTSWLEQKDARLKQEASEGHHHHHH”, the “soluble on expression in E. coli” value is “not soluble”.

Turning to “MSLAHPPRLNDDKPVIWTVSVTRLFELFRDISLEFDHLANITPIQLGFEKAVTYIRKKLANERCDAIIAAGSNGAYLKSRLSVPVILIKPSGYDVLQELAKAGKLTSSIGVVTYQETIPALVAFQKTFNLRLDQRSYITEEDARGQINELKANGTEAVVGAGLITDLAEEAGMTGIFIYSAATVRQAFSDALDMTRMSLRHNTHDATRNALRTRYVLEGHHHHHH”, the “soluble on expression in E. coli” value is “soluble”. For “MSLAKASAESLGGTVASEESIASYIGAGILSSGGNAVDAAVATSLALTVLIPHLGGVGGDFFMLYRSPEGRVFFVNGSGFAPRRLTREEVLGRGLQEIPESGPLSPTTPGYLAGLYHSWRSFGTMEWASLVKPARLLASRGFPLPPSTARSLKLRRECLEADPGSREAVLKTLPREEGSPARLPGLAALLSGVEEDPLYLYQGEPAEALEEYLASIGGVMGAEDLAGTRGFTAEPLYSEYRGWKVWEMPPNTQGVTTLHLLMLLEEEELPEPFSPERVDILAGLARMAYSIRDRYVGDPRYMPIDPHELARKETLLKLLGQEESNGSKATGDTTFFAVADREGGIVAGIQSLFYPWGSCVTEPRFQVTLNNRARGFTLKEGLPSTLRPGAFPLHTLSSVIMEQRERVIALGASGGHLRPQQHALFVTNIVDYGMNVLDAINAPRAVWDPGRGEILCEEGFGCRPSWRKVERIGVANAVEVAGSVKRGYTDMRGDGLPAVEGHHHHHH” the value was “not soluble”.

Consider “MSLAKAYDHLFKLLLIGDSGVGKTCLIIRFAEDNFNNTYISTIGIDFKIRTVDIEGKKIKLQVWDTAGQERFKTITTAYYRGAMGIILVYDITDEKSFENIQNWMKSIKENASAGVERLLLGNKCDMEAKRKVQKEQADKLAREHGIRFFETSAKSSMNVDEAFSSLARDILLKSGGRRSGNEGHHHHHH”, for which the “soluble on expression in E. coli” value was “soluble”. For “MSLAKLNVEVFADGADIEQMKAAYKNKEVDGFTTNPSLMAKAGVTDYKSFAEEAVKEIPDASISFEVFADDLETMEKEAEILKQYGDNVFVKIPVVNTKGESTIPLIKKLSADNVRLNVTAVYTIEQVKEITEAVTEGVPTYISVFAGRIADTGVDPLPLMKESVDVAHSKEGVKLLWASCRELFNVIQADEIGADIITCPADVVKKVNTNLGRDINELSVDTVKGFAKDIQSSGLSEGHHHHHH” the value was “soluble”; for “MSLAKPIEAHTVSPVNPNAQQTTKTVMNWLAHLPNRTENRVLSGAFGGYSHDTFSMAEADRIRSATGQSPAIYGCDYARGWLETANIEDSIDVSCNGDLMSYWKNGGIPQISLHLANPAFQSGHFKTPITNDQYKKILDSSTVEGKRLNAMLSKIADGLQELENQGVPVLFRPLHEMNGEWFWWGLTSYNQKDNERISLYKQLYKKIYHYMTDTRGLDHLIWVYSPDANRDFKTDFYPGASYVDIVGLDAYFQDAYSINGYDQLTALNKPFAFTEVGPQTANGSFDYSLFINAIKQKYPKTIYFLAWNDEWSAAVNKGASALYHDSWTLNKGEIWNGDSLTPIVEEGHHHHHH”, “soluble”; for “MSLALELRQQLKLSQQLVMTPQLQQAIRLLQLSRLELVETVQQELLENPFLEEGMDEGAASSASEASSRKDESAPEAYDRELSRNADWEDYLGEFASSSRQAQVRETELPEEMTAFEARYSARPSLEGHLMWQLRLSRLTEDQKGIGETIIGNIGSSGYLQASVEDIAEMCGADASEVIPVLHAVQRFDPVGVASRTPQECLLIQIEMLGYDRDRVLVELVRDHLEDLETRRYKPLLRKFKLDMDDLKEYLDIIQSLDPMPGSSFGGSDPMFVSPDVFVYKYDDEFVIVLNDDGLPHLQLSSLYDQSLAGVTGKDKDFVQEKVRSASWLIKSLYQRQRTLYKVVESIIKYQRGFFEDGVTRLRPLILKDIADDISMHESTVSRITTNKFVATPHGVFELKFFFNSALELDDGSQVGSESVKALIKKLIGEENPKEPLSDERIGEILKEQLQVNIARRTVAKYRTAMNIPSSSKRKEVFEGHHHHHH”, “soluble”. “MSLALITLRQRNNKVEVRVFDTGIGIDADKQKAIFTDFYRIQDSDEAGVGLGLGVVRRLTEQMHATIDVSSVKRKGSCFILNMRIGSPVTESNVTFNKVKQTLSGLNVLCVDDKNENLDALETLLTRWEVNVVMANTYESALTLLASNKHPSPDVLLIDYQLDKDQDGLSLIKDIKAQVGKHIPSAIVTALQDQELKETCLSQGIQFLNKPLKPAKLRALLQSLAKQKSEGHHHHHH”: the “soluble on expression in E. coli” value is “not soluble”. Regarding “MSLANLNIFGQEVGADVEGWTTRAFPEKVVLKGNTCRLEPLDRERHGSELFSAYSEAGQKLWTYLPAGPFTNLEEYLEFIKELNETKDTVPFAIINKETERAVGTLCLIRIDEANGSLEVGYVVFSPELQKTIIATEAQFLLMKYVFDDLQYRRYEWKCDSLNGPSRRAAMRLGFKYEGTFRQVVVYKGRTRDTQWFSIIDKEWLRIRKTFEEWLDKTNFENGKQKRGIAAIRESLSNEGHHHHHH”, the “soluble on expression in E. coli” value was “soluble”. With “MSLAPIAQAQHELSISRLIDAPPAKVFRAWTEPQWLMQWWGPHGMTTPECEMQLWAGGLFRTLMRAPDGCEYPNQGVFLEIAAPRRLVFTDAFGPGWVPSDKAFMTAVISFDEEQGKTRYTARAWHWNATDCRAHEEMGFHQGWGESLDRLVEVVTQRMPDLEHHHHHH”, the “soluble on expression in E. coli” value is given as “soluble”. For the sequence “MSLAPPEGNPAAGKVAAGLCRTCHGLNGFARIPIAPHIGGEHPSYIRHQLEAFRSGTRQHEIMSVVAASLSDAQIADLSAWFAMQKIHVALKPGVDPHAAPEACALCHGADGVAVLEDAPNLAGENSVYLETQLKAFRTGKRTHEIMSPIAAELTDAEIRAAADWYAAVQLEIDEGHHHHHH”, the “soluble on expression in E. coli” value was “not soluble”. Next, “MSLAPRPRILICEDDPDIARLLNLMLEKGGFDSDMVHSAAQALEQVARRPYAAMTVDLNLPDQDGVSLIRALRRDSRTRDLAIVVVSANAREGELEFNSQPLAVSTWLEKPIDENLLILSLHRAIDNMAEGKEGYLTITTDPNSSSVDKLAAALEHHHHHH”: “soluble”; “MSLAQDVVVGVSWSNFQEERWKTDEAAIKAELESKGAKYISADAQSSSAKQLSDVESLIAQGATALIILAQDAQAIGPAVQAAADEGIPVVGYDRLIEDSRAFYLTFDNVEVGRMQARAVLEAAPSGRYVMIKGSPTDPNADFLRGGQQEVLQAAIDKGDITIVGEAYTDGWLPANAQRNMEQILTATDNGVDAVVASNDGTAGGVVAALTAQGMEGLPVSGQDGDHAALNRVAKGTQTVSVWKDARDLGRAAARIAVSLAEGTQMNAIGGADDWTSPGGTKMNAMFLEPLPITKDNLSVVVDAGWITQETLCQGVTNGPAPCNEGHHHHHH”: “soluble”.
